Values belong to the binder of their own block, whether it stands above or below them.
Tests used:
GST-HA-USP53 = biological target: T1, GST-HA-USP53 (UniProt Q70EK8 1-1073); experiment: pull-down; about 100 µg GST-HA-USP53 (or GST-HA) on 50 µL glutathione agarose, 3 washes with PBST, about 100 µg Flag-CYCS fusion protein added, overnight at 4 °C; eluted with 10 mM glutathione in PBS pH 8.0, immunoblot; conditions: both partners purified
T1 construct: also called GST-HA-USP53 fusion protein; source: E. coli, purified
T1 sequence (looked up): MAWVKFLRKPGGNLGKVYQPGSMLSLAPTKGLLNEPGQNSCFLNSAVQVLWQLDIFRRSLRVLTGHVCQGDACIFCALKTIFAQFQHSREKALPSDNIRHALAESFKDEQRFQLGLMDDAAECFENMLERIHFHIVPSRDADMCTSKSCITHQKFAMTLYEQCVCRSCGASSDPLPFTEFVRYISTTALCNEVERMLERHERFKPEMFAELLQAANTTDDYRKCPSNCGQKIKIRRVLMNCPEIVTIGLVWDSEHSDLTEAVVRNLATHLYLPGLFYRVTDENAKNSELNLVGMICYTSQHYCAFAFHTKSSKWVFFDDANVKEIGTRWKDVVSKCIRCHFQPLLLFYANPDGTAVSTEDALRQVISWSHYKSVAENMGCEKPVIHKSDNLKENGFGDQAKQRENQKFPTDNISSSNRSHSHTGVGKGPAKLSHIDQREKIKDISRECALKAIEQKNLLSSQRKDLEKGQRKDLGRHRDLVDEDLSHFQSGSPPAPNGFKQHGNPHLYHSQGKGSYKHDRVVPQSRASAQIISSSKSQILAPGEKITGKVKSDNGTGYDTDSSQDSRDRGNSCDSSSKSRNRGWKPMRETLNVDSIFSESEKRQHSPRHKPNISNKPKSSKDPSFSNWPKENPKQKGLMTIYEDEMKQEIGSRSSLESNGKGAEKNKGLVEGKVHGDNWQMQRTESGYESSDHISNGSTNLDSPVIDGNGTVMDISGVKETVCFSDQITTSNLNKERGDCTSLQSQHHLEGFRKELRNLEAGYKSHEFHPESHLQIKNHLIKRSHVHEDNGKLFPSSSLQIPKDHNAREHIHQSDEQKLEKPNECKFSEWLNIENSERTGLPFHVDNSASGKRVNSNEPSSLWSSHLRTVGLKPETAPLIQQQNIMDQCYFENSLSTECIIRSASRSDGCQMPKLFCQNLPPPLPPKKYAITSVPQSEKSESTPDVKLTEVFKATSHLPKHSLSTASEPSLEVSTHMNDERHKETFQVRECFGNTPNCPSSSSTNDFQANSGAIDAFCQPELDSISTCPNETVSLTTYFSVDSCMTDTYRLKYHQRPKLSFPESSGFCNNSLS

[1] = biological target: T2, Flag-USP53 (of the GST pull-down) (UniProt Q70EK8 1-1073); experiment: pull-down; purified GST-HA-CYCS on glutathione agarose, Flag-USP53 added; same method as for GST-HA-USP53 with Flag-CYCS; conditions: both partners purified
T2 construct: ubiquitin-specific peptidase 53 (USP53); If it came from transfected HEK-293T cells it would be the same construct as m1
T2 sequence (looked up): T1 sequence (looked up)

binding result (GST-HA-USP53): binds
B1: Flag-CYCS (natural protein)
chain: not shown
notes: cytochrome c (CYCS); plasmid provided by …; also called Flag-CYCS fusion protein; source: E. coli (plasmid transfected into E. coli)

binding result [1]: binds
B2: GST-HA-CYCS (natural protein)
chain: not shown
notes: cytochrome c (CYCS); plasmid provided by …; also called GST-HA-CYCS fusion protein; source: purified (same method as for GST-HA-USP53: E. coli)

From article PMC9163188, “USP53 plays an antitumor role in hepatocellular carcinoma through deubiquitination of cytochrome c” (Oncogenesis, 2022)
